Laboratory results from patent US20220396627A1.

Legend:
[1] = target: Human Siglec-9-Fc (recombinant human Siglec-9 extracellular domain Q18-G348 fused to human IgG1 Fc) (human); experiment: BLI binning, hSiglec-9-Fc on AHC sensor; competitor bound first (row): 2F15
[2] = target: Human Siglec-9-Fc (recombinant human Siglec-9 extracellular domain Q18-G348 fused to human IgG1 Fc) (human); experiment: BLI binning, hSiglec-9-Fc on AHC sensor; competitor bound first (row): 9C15
[3] = target: Human Siglec-9-Fc (recombinant human Siglec-9 extracellular domain Q18-G348 fused to human IgG1 Fc) (human); experiment: BLI binning, hSiglec-9-Fc on AHC sensor; competitor bound first (row): 9D21
[4] = target: Human Siglec-9-Fc (recombinant human Siglec-9 extracellular domain Q18-G348 fused to human IgG1 Fc) (human); experiment: BLI binning, hSiglec-9-Fc on AHC sensor; competitor bound first (row): 12G23
[5] = target: Human Siglec-9-Fc (recombinant human Siglec-9 extracellular domain Q18-G348 fused to human IgG1 Fc) (human); experiment: BLI binning, hSiglec-9-Fc on AHC sensor; competitor bound first (row): 12L19
[6] = target: Human Siglec-9-Fc (recombinant human Siglec-9 extracellular domain Q18-G348 fused to human IgG1 Fc) (human); experiment: BLI binning, hSiglec-9-Fc on AHC sensor; competitor bound first (row): 12P18
[7] = target: Human Siglec-9-Fc (recombinant human Siglec-9 extracellular domain Q18-G348 fused to human IgG1 Fc) (human); experiment: BLI binning, hSiglec-9-Fc on AHC sensor; competitor bound first (row): 13J19
[8] = target: Human Siglec-9-Fc (recombinant human Siglec-9 extracellular domain Q18-G348 fused to human IgG1 Fc) (human); experiment: BLI binning, hSiglec-9-Fc on AHC sensor; competitor bound first (row): 13O18
[9] = target: Human Siglec-9-Fc (recombinant human Siglec-9 extracellular domain Q18-G348 fused to human IgG1 Fc) (human); experiment: BLI binning, hSiglec-9-Fc on AHC sensor; competitor bound first (row): 3L02 (self)
[10] = target: Human Siglec-9-Fc (recombinant human Siglec-9 extracellular domain Q18-G348 fused to human IgG1 Fc) (human); experiment: BLI binning, hSiglec-9-Fc on AHC sensor; competitor bound first (row): 13H10 (printed 13H110)

Human Siglec-9-Fc (recombinant human Siglec-9 extracellular domain Q18-G348 fused to human IgG1 Fc) (human), sequence (chain, as listed by the source limits assumed): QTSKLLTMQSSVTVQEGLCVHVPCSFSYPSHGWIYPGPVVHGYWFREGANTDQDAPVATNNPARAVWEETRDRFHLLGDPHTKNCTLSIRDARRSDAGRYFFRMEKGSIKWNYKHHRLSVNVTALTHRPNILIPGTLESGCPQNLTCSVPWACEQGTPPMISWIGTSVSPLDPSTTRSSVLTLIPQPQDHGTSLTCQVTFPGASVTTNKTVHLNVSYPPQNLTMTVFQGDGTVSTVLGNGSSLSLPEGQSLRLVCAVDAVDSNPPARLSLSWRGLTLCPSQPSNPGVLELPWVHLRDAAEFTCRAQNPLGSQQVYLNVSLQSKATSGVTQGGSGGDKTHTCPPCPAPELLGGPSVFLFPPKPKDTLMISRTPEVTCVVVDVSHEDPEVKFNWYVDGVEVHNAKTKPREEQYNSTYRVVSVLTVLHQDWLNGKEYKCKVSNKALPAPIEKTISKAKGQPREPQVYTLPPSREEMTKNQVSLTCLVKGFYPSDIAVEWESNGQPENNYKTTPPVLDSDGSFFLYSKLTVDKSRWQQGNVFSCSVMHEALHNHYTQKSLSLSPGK

maximum binding nm shift [1]: 0.099 nm
maximum binding nm shift [2]: 0.14 nm
maximum binding nm shift [3]: 0.188 nm
maximum binding nm shift [4]: 0.031 nm
maximum binding nm shift [5]: -0.053 nm
maximum binding nm shift [6]: 0.214 nm
maximum binding nm shift [7]: 0.085 nm
maximum binding nm shift [8]: 0.091 nm
maximum binding nm shift [9]: 0 nm
maximum binding nm shift [10]: -0.064 nm
B1: 3L02 (antibody, V domains shown)
VH: DVQLQESGPGMVKPSQSLSLTCTVTGYSITSGYDWHWIRHFPGNKLEWMGYISYSAGTNYNPSLKSRISITHDTSKNHFFLKLNSVTTEDTATYYCAREGLTAYWYFDVWGTGTTVTVSS
VL: DIVMTQSQKFMSTSVGDRVSVTCKASQTVGTNVAWYQQKPGQSPKPLIYSASYRYSGVPDRFTGSGSGTDFTLTISNVQSEDLAEYFCQQYDSFPLTFGSGTKLEIK
